Two molecules from PMC9598796 (2022) can be followed below.

For the assay, the target named is biotinylated Stx2a holotoxin (Shiga toxin-producing E. coli (STEC), UniProt P09385;P09386). In words: BLI. (In BLI a coated tip is dipped into the sample, and binding shifts an interference pattern.)
biotinylated Stx2a holotoxin, sequence (P09385 23-319, chain 1 of 2): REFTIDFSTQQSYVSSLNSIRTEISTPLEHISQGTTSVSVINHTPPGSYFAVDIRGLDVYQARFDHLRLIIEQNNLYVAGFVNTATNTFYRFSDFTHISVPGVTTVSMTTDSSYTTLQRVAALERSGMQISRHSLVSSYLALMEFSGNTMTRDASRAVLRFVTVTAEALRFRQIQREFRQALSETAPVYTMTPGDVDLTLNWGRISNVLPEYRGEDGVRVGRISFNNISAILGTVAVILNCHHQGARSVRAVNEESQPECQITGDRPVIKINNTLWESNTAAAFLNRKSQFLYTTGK
biotinylated Stx2a holotoxin, sequence (P09386 20-89, chain 2 of 2): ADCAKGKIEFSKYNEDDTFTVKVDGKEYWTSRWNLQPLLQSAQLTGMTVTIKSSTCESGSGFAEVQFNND

B1: DARPin #3 (designed binder)
chain: GKKLLEAARAGQDDEVRILMANGADVNACDSNGRTPLHLAAVRGHLEIVEVLLKNGADVNAWDVIGKTPLHLAADGGHLEIVEVLLKNGADVNAWDLIGRTPLHLAALDGHLEIVEVLLEHGADVNAYDRPGHTPLHLAARRGHLEIVEVLLKYGADVNAQDKFGKTAFDISIDNGNEDLAEILQ
Molecule B1 gave a koff of 0.0438 s⁻¹.

B2: dimeric DARPin SD5 (#3-SHT) (designed binder)
chain: GKKLLEAARAGQDDEVRILMANGADVNACDSNGRTPLHLAAVRGHLEIVEVLLKNGADVNAWDVIGKTPLHLAADGGHLEIVEVLLKNGADVNAWDLIGRTPLHLAALDGHLEIVEVLLEHGADVNAYDRPGHTPLHLAARRGHLEIVEVLLKYGADVNAQDKFGKTAFDISIDNGNEDLAEILQGGGGSGGGGSGGGGSGGGGSGKKLLEAARAGQDDEVRILVANGADVNAGDPFGFTPLHLAALYGHLEIVEVLLKNGADVNAHEEYGFTPLHLAAVVSHMEIVEVLLNNGADVNARDNQGGSPLHLASHTGHLEIVEVLLKQGADVNAQDKFGKTAYDISIDIGNEDLAEILQ
Molecule B2 had a koff of 0.0126 s⁻¹.

As a reminder, the koff is the first-order rate constant of dissociation.
